Source: patent publication US20100048450A1, “Sumoylation Control Agent and Uses Thereof” (priority 2005, published 2010)
Residues, ends and D or L forms follow the SMILES beside them. *: point of attachment. Cbz = O=C(OCc1ccccc1)*

B1: HLS-5: member of the RING finger B-box Coiled-coil (RBCC) protein family; tested by expression from transfected constructs (protein, listed as Homo sapiens)
chain: MERSPDVSPGPSRSFKEELLCAVCYDPFRDAVTLRCGHNFCRGCVSRCWEVQVSPTCPVCKDRASPADLRTNHTLNNLVEKLLREEAEGARWTSYRFSRVCRLHRGQLSLFCLEDKELLCCSCQADPRHQGHRVQPVKDTAHDFRAKCRNMEHALREKAKAFWAMRRSYEAIAKHNQVEAAWLEGRIRQEFDKLREFLRVEEQAILDAMAEETRQKQLLADEKMKQLTEETEVLAHEIERLQMEMKEDDVSFLMKHKSRKRRLFCTMEPEPVQPGMLIDVCKYLGSLQYRVWKKMLASVESVPFSFDPNTAAGWLSVSDDLTSVTNHGYRVQVENPERFSSAPCLLGSRVFSQGSHAWEVALGGLQSWRVGVVRVRQDSGAEGHSHSCYHDTRSGFWYVCRTQGVEGDHCVTSDPATSPLVLAIPRRLRVELECEEGELSFYDAERHCHLYTFHARFGEVRPYFYLGGARGAGPPEPLRICPLHISVKEELDG

Tests used:
HLS-5 = experiment: Confocal microscopy of HLS-5 localisation in COS7 cells; format: cell-based
From the text: (A) Confocal microscopy of COS7 cells co-expressing Myc-tagged HLS-5 and GFP-SUMO-1. HLS-5 was detected with anti-Myc antibodies in conjunction with red secondary antibodies and SUMO-1 detected by green fluorescent. (B) Confocal microscopy of COS7 cells co-expressing Myc-tagged HLS-5 and GATA-1. GATA-1 was detected with an anti-GATA-1 antibody and HLS-5 was detected with anti-Myc antibodies in conjunction with red and green fluorescent secondary antibodies respectively. (C) Confocal microscopy of COS7 cells co-expressing myc-tagged HLS-5 in the presence of MG132. HLS-5 was detected with anti-Myc antibodies in conjunction with red fluorescent secondary antibodies
(§1) Also, COS7 cells co-expressing Myc-tagged HLS-5 or a mutant form of HLS-5 lacking its Ring finger (ΔN61) and HA-tagged SUMO1 were analysed in the presence or absence of MG132.
As HLS-5 is located principally within cytoplasmic granules, the effects of Ubc9, PIAS1, MG-132 and SUMO-1 on HLS-5 compartmentalization were investigated. […] However, when the SUMO-1 and HLS-5 were co-expressed, there was a remarkable increase in the amount of HLS5 appearing in the nucleus (FIG. 3A). Therefore SUMO1 promoted translocation of HLS-5 from cytoplasmic granules into the nucleus.

Hela cells = experiment: HLS5-induced apoptosis in co-transfected Hela cells; format: cell-based, human; conditions: HLS5 alone or co-transfected with the named protein
From the text: To examine the biological effects of Ubc9, PIAS1 and SUMO-1 on HLS5-induced apoptosis, COS cells and HeLa cells were co-transfected with these molecules and cell death monitored. […] However, the effects of SUMO-1 on cell death induced by HLS5 were less pronounced.

SUMO-2 = experiment: Yeast two-hybrid binding of HLS-5 to SUMO-2; conditions: liquid β-galactosidase assay
Protocol: (§2) (A) Potential sumoylation sites of HLS-5 are shown. (B) Binding of Hls-5 deletion mutants to full length Sumo-1 was examined in the yeast system by filter assay for β-galactosidase activity. (C) Interaction between Hls-5 and Sumo-1, 2 or 3 was examined using yeast two-hybrid. Binding was assessed using a liquid assay to measure β-galactosidase activity. Samples were measured in triplicate and shown is the mean±standard deviation. (D) Lysates from COS7 cells transfected with Myc-tagged Hls-5, and/or HA-tagged Sumo-1, HA-tagged UBC9, HA-tagged PIAS1 were immunoblotted (IB) with antibodies to Sumo-1 or Myc.
(§3) Since HLS-5 was able to interact with Ubc9 and PIAS1, the possibility that HLS-5 is sumoylated was then examined. Like other RBCC/TRIM family members such as PML (Duprez et al., 1999, J Cell Sci., 112, 381-393; Kamitani et al., 1998, J. Biol. Chem., 273, 26675-26682), HLS-5 has several ΨKxE/D consensus sumoylation sites (FIG. 2a). To determine if HLS-5 was able to bind SUMO-1, the yeast two-hybrid system was employed using several HLS-5 deletion mutants.

SUMO-1 [1] = target: T1, SUMO-1 (Homo sapiens, UniProt P63165); experiment: Yeast two-hybrid binding of HLS-5 to SUMO-1
T1 construct: expressed in transfected cells; host or cells: yeast (two-hybrid)
T1 sequence (P63165 whole entry, species assumed): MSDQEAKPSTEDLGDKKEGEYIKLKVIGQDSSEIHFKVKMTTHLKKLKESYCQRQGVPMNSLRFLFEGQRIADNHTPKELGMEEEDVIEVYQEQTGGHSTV
Protocol: as §2, §3

Ubc9 [2] = target: T2, Ubc9 (Homo sapiens, UniProt P63279); experiment: BRET assay of HLS-5 and Ubc9 in COS cells; format: binding; conditions: HLS-5 and Ubc9 constructs co-expressed in COS cells
T2 construct: expressed in transfected cells; host or cells: yeast (two-hybrid)
T2 sequence (P63279 whole entry, species assumed): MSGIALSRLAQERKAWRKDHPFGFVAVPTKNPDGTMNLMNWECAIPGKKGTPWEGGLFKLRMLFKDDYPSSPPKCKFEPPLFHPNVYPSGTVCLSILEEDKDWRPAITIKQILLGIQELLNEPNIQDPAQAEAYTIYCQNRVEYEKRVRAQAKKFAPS
Protocol: (§4) (A) Full length Ubc9 was examined for binding to various HLS-5 constructs as shown using yeast two-hybrid. Binding was measured by filter assay for β-galactosidase activity. (B) BRET assay of COS7 cells expressing HLS-5. Rluc fusion protein with increasing amounts of GFP-Ubc9 fusion protein. Results presented as BRET ratio. (C) PIAS1 (aa 303-651) fragment isolated from the Y2H screen was assessed for binding to various HLS-5 constructs as shown using yeast two-hybrid. Binding was measured by filter assay for β-galactosidase activity. (D) Lysates from COS7 cells transfected with Myc-tagged HLS-5, HA-tagged PIAS1 and/or GATA-1 were immunoprecipitated (IP) with anti-Myc antibodies and immunoblotted (IB) with antibodies to HA or Myc in the presence and/or absence of NEM/IAA.
The interaction between HLS-5 and Ubc9 was characterized further by yeast 2 hybrid assays to define important binding domains. […] To confirm that HLS-5 and Ubc9 were genuine binding partners, the interaction was investigated in mammalian cells using bioluminescence resonance energy transfer (BRET), which is able to detect protein:protein interactions in living cells (Xu et al., 1999, Proc Natl Acad Sci USA, 96, 151-156). […] However, this interaction may well be transient as the two molecules could not be co-immunoprecipitate (data not shown). […]

PIAS1 [3] = target: T3, PIAS1 (Homo sapiens, UniProt O75925); experiment: Co-immunoprecipitation of HLS-5 and PIAS1 in COS cells; format: binding; conditions: when GATA-1 was present
T3 construct: HA; expressed in transfected cells; host or cells: COS7
T3 sequence (O75925 whole entry, species assumed): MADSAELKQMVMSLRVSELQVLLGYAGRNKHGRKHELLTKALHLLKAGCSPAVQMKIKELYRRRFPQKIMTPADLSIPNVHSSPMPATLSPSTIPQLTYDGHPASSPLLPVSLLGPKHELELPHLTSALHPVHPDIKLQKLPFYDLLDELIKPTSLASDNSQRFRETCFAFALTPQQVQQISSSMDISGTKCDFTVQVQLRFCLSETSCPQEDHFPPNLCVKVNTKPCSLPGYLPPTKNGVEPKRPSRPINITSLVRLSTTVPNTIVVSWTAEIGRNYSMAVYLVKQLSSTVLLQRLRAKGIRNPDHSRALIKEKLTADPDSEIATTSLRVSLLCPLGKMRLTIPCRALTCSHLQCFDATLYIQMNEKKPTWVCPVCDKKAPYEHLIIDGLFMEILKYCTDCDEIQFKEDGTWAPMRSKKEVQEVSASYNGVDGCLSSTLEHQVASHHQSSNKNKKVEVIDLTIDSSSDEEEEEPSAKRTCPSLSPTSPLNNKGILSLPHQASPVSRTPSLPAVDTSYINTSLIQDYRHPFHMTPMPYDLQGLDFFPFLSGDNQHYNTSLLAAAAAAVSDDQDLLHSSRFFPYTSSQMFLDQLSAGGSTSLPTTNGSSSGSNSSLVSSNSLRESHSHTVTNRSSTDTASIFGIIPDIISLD
Protocol: as §4
As PIAS1 mainly is a nuclear protein (Tan et al., 2000, Mol Endocrinol, 14, 14-26), and HLS-5 is primarily cytoplasmic, the failure of these molecules to interact may be caused by subcellular separation. Since GATA-1 promotes nuclear re-localization of HLS-5 (see below and FIG. 3b) it was included in co-transfections with HLS5 and PIAS1. […] It is postulated that the redistribution of HLS-5 induced by GATA-1 enabled nuclear access and binding to PIAS1 or that GATA-1, HLS-5 and PIAS1 form a protein complex required for this interaction.

SUMOylated substrate = SUMOylated substrate co-immunoprecipitating with Myc-tagged HLS-5 in COS7 cells; format: cell-based; conditions: HA-tagged SUMO1, in the presence of MG132, FIG. 6A
Protocol: (A) COS7 cells co-expressing Myc-tagged HLS-5 or a mutant form of HLS5 lacking its Ring finger (ΔN61) and HA-tagged SUMO1 in the presence or absence of MG132. SUMOylated substrate was detected with an anti-HA antibody and HLS-5 was immunoprecipitated by using a Myc antibodies respectively.
as §1

Ubc9 [4] = target: T2, Ubc9; experiment: Yeast two-hybrid binding of HLS-5 to Ubc9; conditions: yeast 2 hybrid, β-galactosidase filter assay
Protocol: as §4
A yeast two-hybrid screen for HLS-5 interacting partners identified two proteins involved in the sumoylation pathway viz Ubc9 and PIAS1.
The interaction between HLS-5 and Ubc9 was characterized further by yeast 2 hybrid assays to define important binding domains. […] To confirm that HLS-5 and Ubc9 were genuine binding partners, the interaction was investigated in mammalian cells using bioluminescence resonance energy transfer (BRET), which is able to detect protein:protein interactions in living cells (Xu et al., 1999, Proc Natl Acad Sci USA, 96, 151-156). […]

GATA-1 [5] = experiment: Co-immunoprecipitation of HLS-5 and GATA-1 in COS cells; format: binding; conditions: with isopeptidase inhibitors NEM and IAA
Protocol: (§5) (B and C) Lysates from COS7 cells transfected with Myc-tagged HLS-5 and/or GATA-1, and/or HA-tagged Sumo-1, and/or HA-tagged PIAS1 were immunoblotted (IB) with antibodies to GATA-1, HA or Myc D) COS7 cells were transfected as shown in the presence of pGL3-M1α firefly luciferase reporter construct and pRN-CMV renilla luciferase construct. Relative GATA-1 activity was determined by dividing firefly activity with renilla activity. Amount of DNA used was 200 ng per transfection (+) unless otherwise shown. Samples were performed in duplicate and shown is the mean±range. Data shown are representative of three independent experiments.
The interaction between GATA-1 and HLS5 was then examined biochemically by transfecting COS cells with myc-tagged HLS-5 and GATA-1, followed by immunoprecipitation and immunoblotting.

PIAS1 [6] = experiment: Immunoblot of PIAS1 levels in COS cells co-expressing HLS-5 or deletion mutants; format: cell-based; conditions: co-expression with HA-tagged PIAS1, FIG. 5B/5C
From the text: (§6) (A) Hela cells co-expressing Myc-tagged HLS-5 and HA-tagged PIAS1. PIAS1 was detected with an anti-HA antibody and HLS-5 was detected as a GFP fusion protein in conjunction with red and green fluorescent secondary antibodies respectively. (B) COS7 cells transfected with GFP-tagged HLS-5 and/or HA-tagged PIAS1, UBC9 or SUMO-1 and immunoblotted (IB) with antibodies to HA. (C) Lysates from COS7 cells transfected with Different Myc-tagged HLS-5 deletion constructs and HA-tagged-PIAS1, and GFP-tagged Histone 2B as a transfection/Loading control. Samples were immunoblotted (IB) with antibodies to GFP, HA and Myc.
(§7) To investigate whether HLS-5 was a functional E3 ligase, SUMO-1 and HLS-5 were co-expressed in COS cells and total protein sumoylation ascertained by immunoblotting. […] We then investigated which domain of HLS-5 was involved in the elimination of PIAS1 protein expression. […] Thus, HLS-5 altered global protein SUMOylation and reduced intracellular content of SUMO-1, PIAS1 and Ubc9, key components of the SUMOylation machinery and this action is accomplished partly through its B Box & Coiled Coil domain.

SUMO-1 [7] = experiment: Immunoblot of SUMO-1 levels in COS cells co-expressing HLS-5; format: cell-based; conditions: SUMO-1 and HLS-5 co-expressed, FIG. 5B
From the text: as §6, §7

SUMO-3 = experiment: Yeast two-hybrid binding of HLS-5 to SUMO-3; conditions: liquid β-galactosidase assay
Protocol: as §2, §3

GATA-1 [8] = experiment: GATA-1 transactivation luciferase reporter assay in COS cells; format: cell-based
Protocol: as §5
The effect of HLS-5 on sumoylated GATA-1 transactivation was then examined using the MIα promoter and luciferase reporter assays. […] These observations contrast with the inhibitory effects of GATA-1 sumoylation on transactivation reported by Collavin et al. (2004, supra). […] These observations are consistent with a modulatory role for HLS5 in sumoylation.

Ubc9 [9] = experiment: Immunoblot of Ubc9 levels in COS cells co-expressing HLS-5; format: cell-based; conditions: co-expression, FIG. 5B
From the text: as §6, §7

global SUMOylation = experiment: Total protein sumoylation by immunoblotting in COS cells co-expressing SUMO-1 and HLS-5; format: cell-based; conditions: SUMO-1 and HLS-5 co-expressed
From the text: as §6, §7

Molecule	translocation of HLS-5 from cytoplasmic granules into the nucleus (HLS-5; COS7 cells)	effect on HLS-5 accumulation (HLS-5; COS7 cells expressing myc-tagged HLS-5, FIG. 3C)	apoptosis / cell death caused by HLS5 (Hela cells)	binding to SUMO-2 (SUMO-2)	interaction with SUMO-1 (SUMO-1 [1])	BRET ratio (Ubc9 [2])	co-immunoprecipitation with PIAS1 (PIAS1 [3])	SUMOylated substrate detected with anti-HA antibody (SUMOylated substrate)	association with Ubc9 (Ubc9 [4])	co-immunoprecipitation with GATA-1 (GATA-1 [5])	PIAS1 protein level (PIAS1 [6])	reduction of the levels of SUMO-1 (SUMO-1 [7])	binding to SUMO-3 (SUMO-3)	GATA-1 activity (GATA-1 [8]; co-expression with SUMO-1)	GATA-1 transactivation (GATA-1 [8]; in the presence of both SUMO-1 and PIAS1)	Ubc9 protein level (Ubc9 [9])	overall sumoylation (global SUMOylation)
CC(C)C[C@@H](C=O)NC(=O)[C@H](CC(C)C)NC(=O)[C@H](CC(C)C)NC(=O)OCc1ccccc1 [MG132] (Cbz-Leu-Leu-Leu-aldehyde)	translocation was also observed	accumulation of HLS-5															
Ubc9: E2 enzyme in the SUMO-1 conjugation pathway			12 % of cells														
B1			60 % of cells	neither SUMO-2, nor SUMO-3 bound	could interact with SUMO-1	positive BRET ratio	could co-immunoprecipitate	SUMOylated substrate detected	able to associate with Ubc9	GATA-1 was detected in HLS-5 immunoprecipitates	almost complete elimination of PIAS1	> 95%	neither SUMO-2, nor SUMO-3 bound	decreased GATA-1 activity	suppressed GATA-1 transactivation	reduced the levels of Ubc9	reduced
